Here are results for one substance from paper PMC8166773.

The target of the test is influenza HA proteins mixture of A/California/7/09 (H1N1), A/Victoria/210/09 (H3N2), and B/Brisbane/. In words: SPR. To be noted: natural protein.

Take Pseudomonas taiwanensis lectin (PTL): the Kd was determined as 8.9 nM and the dissociation rate constant (koff) turned out to be 9.1e-06 s⁻¹.

In general, Kd refers to the equilibrium constant for the complex coming apart. Usually koff stands for a measure of how fast the partners let go of each other.
